This is an account of results in patent publication US20020061531, “Detection of binding factors with fluorescence polarization” (published 2002).

Data set [1] deals with T1, SSB protein (UniProt P0AGE0 P0AGE0:2-178). Briefly: CE mobility; 25 mM Na2B4O7 pH 9.1, SSB in running buffer; Hill fit. The following applies: tags: Sigma; unlabeled; chain copies: tetramer (stated); label: fluorescein.
Data set [2] concerns the target T1, SSB protein. Briefly: FP; CE/LIFP anisotropy 0.05 to 0.25; 25 mM Na2B4O7 pH 9.1. The following applies: tags: Sigma; unlabeled; chain copies: tetramer (stated); label: fluorescein.
Data set [3] concerns the target T2, HIV-1 reverse transcriptase (p66/p51) (Human immunodeficiency virus 1, UniProt P04585;P04585 P04585:588-1147,P04585:588-1027). Kind of data set: CE/LIF; two complex peaks; lower binding constant than RT 26; 1xTBE. The following applies: tags: Worthington Biochemicals; chain copies: heterodimer (stated).
Data set [4] has as its target SSB protein, FITC-labeled (UniProt P0AGE0 P0AGE0:2-178). Briefly: CE mobility shift of FITC-SSB, anisotropy change only ~0.02; pH 9.1. The following applies: tags: FITC (5.3 dye per protein), Sigma; chain copies: tetramer (stated).
The target of data set [5] is T1, SSB protein. Briefly: FP; 1:1 complex; mobility and anisotropy gave similar values; 2:1 complex also seen; A=0.23. The following applies: tags: Sigma; unlabeled; chain copies: tetramer (stated); label: fluorescein.
Data set [6] concerns the target MMLV reverse transcriptase (Moloney murine leukemia virus, UniProt P03355 P03355:660-1330).
Data set [7] deals with T2, HIV-1 reverse transcriptase (p66/p51).
The target of data set [8] is trp repressor (Escherichia coli, UniProt P0A881 P0A881:2-108). Briefly: FP; CE/LIFP polarization 0.11 free to 0.25 with repressor; trp binding buffer pH 7.6.

Like-named read-outs stand apart in the source and are kept apart here.

T1 sequence (P0AGE0 2-178, one chain of several): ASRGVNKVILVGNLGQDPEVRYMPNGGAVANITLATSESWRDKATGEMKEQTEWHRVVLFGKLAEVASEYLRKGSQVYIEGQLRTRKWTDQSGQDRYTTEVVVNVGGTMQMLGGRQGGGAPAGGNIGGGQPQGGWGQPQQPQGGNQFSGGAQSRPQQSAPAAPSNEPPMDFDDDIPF
Chain of SSB protein, FITC-labeled (P0AGE0 2-178, one chain of several): as above

For CGCGATACGCC (ssDNA) [F-11-mer], the figures for the Ka in data set [1] and in data set [2] were roughly 4.4e+06 M⁻¹ and roughly 5e+06 M⁻¹, respectively.

B1: RT 12 aptamer (ssDNA)
DNA: ATCTACTGGATTAGCGATACTCGATTAGGTCCCCTGCCGCTAAACCATACCGCGGTAACTTGAGCAAAATCACCACTGCAGGGG
As to B1, the binding result in data set [3] is recorded as “binds”.

TTTTTTTTTTTTTTTTTT (ssDNA) [d(pT)18]: the binding result in data set [4] was “binds”.

In data set [5], CCTTAAGCTTCCTCAACCACTTACCATACTCGAGATT (ssDNA) [F-37-mer] had a Ka of roughly 2e+07 M⁻¹.

B2: RT 26 aptamer (ssDNA)
DNA: ATCCGCCTGATTAGCGATACTTACGTGAGCGTGCTGTCCCCTAAAGGTGATACGTCACTTGAGCAAAATCACCTGCAGGGG
As to B2, the binding result was “no binding” in data set [6] and “binds” in data set [7].

B3: trp operator 25 bp (dsDNA)
DNA 1: ATCGAACTAGTTAACTAGTACGCAA
DNA 2: TTGCGTACTAGTTAACTAGTTCGAT
For the molecule B3, in data set [8], the binding result was “binds”.
